The nanobody polyreactivity screen of Harvey et al. (2022)

Assay: yeast display, Sf9 membrane polyspecificity reagent, FACS + sequencing; frameworks hold sequencing errors
How it was run: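 Sorting gates, low and high (top ~1%), were placed on anti-HA fluorescence to track expression and on streptavidin fluorescence to track reagent binding. A clone's polyreactivity label is taken from the gate it came out of. The reagent was 10% biotinylated, detergent-solubilized Sf9 membrane, applied for 1 hour at 4 °C to galactose-induced yeast display cells.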

QVQLVESGGGLVQAGGSLRLSCAASGSIFRPYAMGWYRQAPGKEMELVAAISSSGGSTYYADSVKGRFTISRDNAKNTVYLQMNSLKPEDTAVYYCAAESRSTWIHSRDYWGQGTQVTVSS
polyreactivity (PSR sort gate): low polyreactivity

QVQLVESGGGLVQAGGSLRLSCAASGSIFRPYAMGWYRQAPGKERELVAAISSSSGRTYYADSVKGRFTISRDNAKNTVYLQMNSLKPEDTAVYYCAADRYSFRGDYYWGQGTQVTVSS
polyreactivity (PSR sort gate): low polyreactivity

QVQLVESGGGLVQAGGSLRLSCAASGSIFRPYAMGWYRQAPGKERELVAAISYRGGSTYYADSVKGRFTISRDNAKNTVYLQMNSLKPEDTAVYYCAADSREEGDYWGQGTQVTVSS
polyreactivity (PSR sort gate): low polyreactivity

QVQLVESGGGLVQAGGSLRLSCAASGSIFRPYTMGWYRQAPGKERELVATISSTGITNYADSVKGRFTISRDNAKNTVYLQMNSLKPEDTAVYYCAARGRYVTPQPSYDYWGQGTQVTVSS
polyreactivity (PSR sort gate): high polyreactivity

QVQLVESGGGLVQAGGSLRLSCAASGSIFRQNAMGWYRQAPGKERELVAAISWSGVRTYYADSVKGRFTISRDNAKNTVYLQMNSLKPEDTAVYYCATRYTHVYYGRISSSPKFDSWGQGTQVTVSS
polyreactivity (PSR sort gate): low polyreactivity

QVQLVESGGGLVQAGGSLRLSCAASGSIFRRNAMGWYRQAPGKEREFVAAITWNGGSTYYADSEKGRFTNSRDNAKNPVYLQRNSLKPEDTAVYYCAARAFYYAGDWYGYWGQGTQVTVSS
polyreactivity (PSR sort gate): high polyreactivity

QVQLVESGGGLVQAGGSLRLSCAASGSIFRRNAMGWYRQAPGKERELVAAIRSGGGTNYADSVKGRFTISRDNAKNTVYLQMNSLKPEDTAVYYCAAVYERYYLFEYDYWGQGTQVTVSS
polyreactivity (PSR sort gate): low polyreactivity

QVQLVESGGGLVQAGGSLRLSCAASGSIFRRNPMGWYRQAPGKESELVAAISSSGGSTYYADSVKGGFTISRDIAKNTFYLQMNSVKPEDTAVYYCAARFGPQYRFDYWGQGTQVTVSS
polyreactivity (PSR sort gate): high polyreactivity

QVQLVESGGGLVQAGGSLRLSCAASGSIFRRNTMGWYRQAPGKERELVAAISTRGGSTYYADSVKGRFTISRDNAKNTVYLQMNSLKPEDTAVYYCNTRGYYIVHRGYDYWGQGTQVTVSS
polyreactivity (PSR sort gate): high polyreactivity

QVQLVESGGGLVQAGGSLRLSCAASGSIFRRYAMGWYRQAPGKEREFVAAITRSGGGTYYADSVKGRFTISRDNAKNTVYLQMNSLKPEDSAVYYCAKDVFVQRSRYPEGDYWGQGTQVTVSS
polyreactivity (PSR sort gate): high polyreactivity

QVQLVESGGGLVQAGGSLRLSCAASGSIFRRYAMGWYRQAPGKEREFVAAITRSGGGTYYADSVKGRFTISRDNAKNTVYLQMNSLKPEDTAVYYCAKDVFVQRSRYPEGDYWGQGTQVTVSS
polyreactivity (PSR sort gate): high polyreactivity

QVQLVESGGGLVQAGGSLRLSCAASGSIFRRYAMGWYRQAPGKERELVAAISGSAGSTYYADSVKGRFTISRDNAKNTVYLQMNSLKPEDTAVYYCKTDRSRSPGDVESASDIKRDYWGQGTQVTVSS
polyreactivity (PSR sort gate): low polyreactivity

QVQLVESGGGLVQAGGSLRLSCAASGSIFRRYAMGWYRQAPGKERELVAAISWRGDSTYYADSVKGRFTISRDNAKNTVYLQMNSLIPEDTAVYYCAADYYRAGRYWGQRHGYDYWGQGTQVTVSS
polyreactivity (PSR sort gate): low polyreactivity

QVQLVESGGGLVQAGGSLRLSCAASGSIFRRYAMGWYRQAPGKERELVAAITGTGGRTYYADSVKGRFTMSRDNAKNTVYLQMNSLKPEDTAVYYCNKLVTYYRADPEYDYWGQGTHVTVSS
polyreactivity (PSR sort gate): high polyreactivity

QVQLVESGGGLVQAGGSLRLSCAASGSIFRRYAMGWYRQAPGKERELVATISYRGGTTYYADSVKVRFTISRDNAKNTVYLQMNSLKPEDTAVYYCNTLYYRGIYDHWGQGTQVTVSS
polyreactivity (PSR sort gate): high polyreactivity

QVQLVESGGGLVQAGGSLRLSCAASGSIFRRYATGWYRQAPGKERQLVAAISSGGSTYADSVKGRFTISRDNAKNTVYLQMNSLKPEDTAVYYCNASGRWYYGRRYDYWGHGTQVTVSS
polyreactivity (PSR sort gate): low polyreactivity

QVQLVESGGGLVQAGGSLRLSCAASGSIFRSNAMGWYRQAPGKEREVVAAISSRGGSTYYADSVKGRFTISRDNAKNTVYLQMNSLKPEDTAVYFCNKARYTVISYDEYDYWGQGTQVTVSS
polyreactivity (PSR sort gate): high polyreactivity

QVQLVESGGGLVQAGGSLRLSCAASGSIFRSNSMGWYRQAPGKERELVAAISSRGGSTYYADSVKGRFTISRDNAKNTVYLQMNSLKPEDTAVYYCYKDRYTVISYDEYDYWGQGTQVTVSS
polyreactivity (PSR sort gate): high polyreactivity

QVQLVESGGGLVQAGGSLRLSCAASGSIFRSSDMGWYRQAPGKERELVAAISDSTGTTYYADSVKGRFTISRDNAKNTVYLQMNSLKPEDTAVYYCAADYFWYRSGRYHYWGQGTQVTVSS
polyreactivity (PSR sort gate): high polyreactivity

QVQLVESGGGLVQAGGSLRLSCAASGSIFRSYAMGWYRQAPGKERELVAAISRRGGSTYYADSVKGRFTISRDNAKNTVYLQMNSLKPADTGVYYCAAVRYNSRVSTTPSDMYYWGQGTQVTVSS
polyreactivity (PSR sort gate): low polyreactivity

QVQLVESGGGLVQAGGSLRLSCAASGSIFRSYAMGWYRQAPGNERELVAAITRSGGSTYYADSVKGRFTISRDNAKNTVYLQMNSLKPEDTAVYYCAAEYYSYTWGWGHGYWGQGTQVTVSS
polyreactivity (PSR sort gate): high polyreactivity

QVQLVESGGGLVQAGGSLRLSCAASGSIFRTNAMGWYRQAPGKEREFVASISSDSGNTYYADSVKGRFTISRDNAKYTVYLQMNSLKPEDTAVYYCARRKVRYWSYRAANYYWGQGTQVTVSS
polyreactivity (PSR sort gate): low polyreactivity

QVQLVESGGGLVQAGGSLRLSCAASGSIFRTNTMGWYRQAPGKEREFVAAITAIGDSTYYADSVKGRFTISRDNAKNTVYLQMNSLKPEDTAVYYCAAEKVSWGYHFYSSYDYWGQGTQVTVSS
polyreactivity (PSR sort gate): low polyreactivity

QVQLVESGGGLVQAGGSLRLSCAASGSIFRTYTMGWYRQAPGKEREFVAAISRSGGSTYYADSVKGRFTISRDNAKNTVYLQMNSLKPEDTAVYYCNARCGLGSYGYWGQGTQVTVSS
polyreactivity (PSR sort gate): high polyreactivity

QVQLVESGGGLVQAGGSLRLSCAASGSIFRTYTMGWYRQAPGKEREFVAAISRSGGSTYYADSVKGRFTISRDNAKNTVYLQMNSLKPEDTAVYYCNARWGLGSYGYWGQGTQVTVTS
polyreactivity (PSR sort gate): high polyreactivity

QVQLVESGGGLVQAGGSLRLSCAASGSIFRVYAMGWYRQAPGKERELVAAISSSGDSTYYADSVKGRFTISRDNAKNTVYLQMNSLKPEDTAVYYCAADVKQRVKSSTMYYWGQGTQVTVSS
polyreactivity (PSR sort gate): high polyreactivity

QVQLVESGGGLVQAGGSLRLSCAASGSIFRVYAMGWYRQAPGKERELVAAISSSGVRTSYADSVKGRFTISRDNAKNTVYLQMNSLKPEDTAVYYCNAAYGRRYDYWGQGTQVTVSS
polyreactivity (PSR sort gate): high polyreactivity

QVQLVESGGGLVQAGGSLRLSCAASGSIFRVYAMGWYRQAPGKERELVAAITSRGGSTYYADSVKGRFTISRDNAKNTVYLQMNSLKQEDTAVYYCAAAYPYRTGRGYYWGQGTQVTVSS
polyreactivity (PSR sort gate): high polyreactivity

QVQLVESGGGLVQAGGSLRLSCAASGSIFRVYAMGWYRQAPGKERELVAAITYSSGSTYYADSVKGRFTISRDNAKNTVYLQMNSLKPEDTAVYYCAAYWSYYLREFDYWGQGTQVTVSS
polyreactivity (PSR sort gate): high polyreactivity

QVQLVESGGGLVQAGGSLRLSCAASGSIFRVYAMGWYRQAPGKVRELVAVISIAGRTNYADSVKGRFTISRDNAKNTVYLQMNSLKPEDTAVYYCNAEWDLNHLYDSWGQGTQETVSS
polyreactivity (PSR sort gate): low polyreactivity

QVQLVESGGGLVQAGGSLRLSCAASGSIFRWNAMGWSRQATGKERELVAVINSSGGSTYYADSVKGRFTISRDNAKNTVYLQMNSLKPEDTAVYYCAADVFFYVYEAYLLYYWGQGTQVTVSS
polyreactivity (PSR sort gate): low polyreactivity

QVQLVESGGGLVQAGGSLRLSCAASGSIFRWYAIGWYRQAPGKERELVATICWSTGTTYYADSVKGRFTISRDNAKNTVYLQMNSLKPEDTAVYYCAKVSTYRSSYSLKSGYGNDYWGQGTQVTVSS
polyreactivity (PSR sort gate): low polyreactivity

QVQLVESGGGLVQAGGSLRLSCAASGSIFRYNAMGWYRQAPGKERELVAAIDWSGGTYYADSVKGRFTISRDNAKNTVYLQMNSLKPEDTAVYYCNARGSTYSSYWGYDYWGQGTQVTVSS
polyreactivity (PSR sort gate): low polyreactivity

QVQLVESGGGLVQAGGSLRLSCAASGSIFRYNAMGWYRQAPGKERELVAAISQSGGRTSYADSVKGRFTISRDNAKNTVYLQMNSLKPEDTAVYYCAKRAYGYRSIYRMDYWGQGTQVTVSS
polyreactivity (PSR sort gate): high polyreactivity

QVQLVESGGGLVQAGGSLRLSCAASGSIFRYNAMGWYRQAPGKERELVAGITWGGGRTYYADSVKGRFTISRDNAKNTVYLQMNSLKPEDTAVYYCNAVRKYKGDSSFDYWGQGTQVTVSS
polyreactivity (PSR sort gate): high polyreactivity

QVQLVESGGGLVQAGGSLRLSCAASGSIFRYNAMGWYRQAPGKERELVAVIRGTSGDTYYADSVKGRFTISRDNAKNTVYLQMNSLKPEDTAVYYCAAQLAGASYSHSNYSDWFDYWGQGTQVTVSS
polyreactivity (PSR sort gate): low polyreactivity

QVQLVESGGGLVQAGGSLRLSCAASGSIFRYNVMGWYRQAPGKERELVAAISYTGGRKYYADSVKGRFTISRDNAKNTVYLQMNRLKPEETAVYDCAALGWSGRYRYDYWGQGTQVTVAS
polyreactivity (PSR sort gate): high polyreactivity

QVQLVESGGGLVQAGGSLRLSCAASGSIFRYVMGWYRQAPGKERELVAAISIRGGSTYYADSVKGRFTISRDNAKNTVYLQMNSLKPEDTAVYYCAADRYRLGVKYDYWGQGNQVTVSS
polyreactivity (PSR sort gate): high polyreactivity

QVQLVESGGGLVQAGGSLRLSCAASGSIFRYYAMGWSRQAPGKERELVAAISRRGSSTYYADSVKGRFTISRDNAKKTVYLQMNSLKPEDTAVYYCAAGDFKQYDYWGQGTQVTVSS
polyreactivity (PSR sort gate): high polyreactivity

QVQLVESGGGLVQAGGSLRLSCAASGSIFRYYAMGWYRQAPGKEREFVAAISRSGGSTYYADSVKGRFTISRDNAKNTVYLQMNSLKPEDTAVYYCAASYYRYFVSLGYDYWGQGTQVTVSS
polyreactivity (PSR sort gate): high polyreactivity

QVQLVESGGGLVQAGGSLRLSCAASGSIFRYYAMGWYRQAPGKERELVAAINSRGGTTYYADSVKGRFTISRDNAKNTVYLQMNSLKPEDTAVYYCAAGYPPLHTSVQQTAHYGLDYWGQGTQVTVSS
polyreactivity (PSR sort gate): high polyreactivity

QVQLVESGGGLVQAGGSLRLSCAASGSIFRYYAMGWYRQAPGKERELVAAISSSGDNTYYADSVKGRFTISRDNAKNTVYLQMNSLKPEDTAVYYCAVRGERRYIYDYWGQGTQVTVSS
polyreactivity (PSR sort gate): high polyreactivity

QVQLVESGGGLVQAGGSLRLSCAASGSIFRYYAMGWYRQAPGKERELVAAITASGGRTHYADSVKGRFTISRDNAKNTVYLQMNSLKLEDTAVYYCSADLYYAWYWKQHYDYWGQGTQVTVSS
polyreactivity (PSR sort gate): high polyreactivity
